Experimental data from PMC8591604 (Journal of Medicinal Chemistry, 2021).
[ ]: non-standard residue; d: D form. pY = N[C@@H](Cc1ccc(OP(=O)(O)O)cc1)C(=O)O

Biological target: T1, N-SH2 domain of SHP2 (residues 2–111) (human, UniProt Q06124 2-111)
T1 construct: SHP2 (PTPN11), human, N-terminal SH2 domain, residues 2-111; also called wild-type N-SH2; source: E. coli (DE3) Rosetta2, purified (Ni-NTA)
T1 sequence (looked up): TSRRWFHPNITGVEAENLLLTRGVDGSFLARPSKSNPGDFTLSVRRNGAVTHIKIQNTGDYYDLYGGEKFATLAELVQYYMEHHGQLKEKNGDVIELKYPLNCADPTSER
Assay: fluorescence polarisation; fluorescence anisotropy, displacement: 1.0 nM CF-P9 with 40 nM N-SH2 titrated with unlabelled peptide; fluorescence buffer
Conditions: both partners purified

B1: P8, unlabeled IRS-1 pY1172 peptide, residues −2 to +5 (peptide)
peptide: Ac-LN[pY]IDLDL-NH2
SMILES: CC[C@H](C)[C@H](NC(=O)[C@H](Cc1ccc(OP(=O)(O)O)cc1)NC(=O)[C@H](CC(N)=O)NC(=O)[C@H](CC(C)C)NC(C)=O)C(=O)N[C@@H](CC(=O)O)C(=O)N[C@@H](CC(C)C)C(=O)N[C@@H](CC(=O)O)C(=O)N[C@@H](CC(C)C)C(N)=O
notes: IRS-1, residues −2 to +5 around pY1172 (rat numbering; P9 without residue −3); source: synthetic peptide
binding result: binds
